Laboratory results from PMC7367873, “Dissecting the sequence determinants for dephosphorylation by the catalytic subunits of phosphatases PP1 and PP2A” (Nature Communications, 2020).

B1: CCDC18 (protein, UniProt Q5T9S5 1-1454, looked up)
Coiled-coil domain-containing …: MESSSSDYYNKDNEEESLLANVASLRHELKITEWSLQSLGEELSSVSPSENSDYAPNPSRSEKLILDVQPSHPGLLNYSPYENVCKISGSSTDFQKKPRDKMFSSSAPVDQEIKSLREKLNKLRQQNACLVTQNHSLMTKFESIHFELTQSRAKVSMLESAQQQAASVPILEEQIINLEAEVSAQDKVLREAENKLEQSQKMVIEKEQSLQESKEECIKLKVDLLEQTKQGKRAERQRNEALYNAEELSKAFQQYKKKVAEKLEKVQAEEEILERNLTNCEKENKRLQERCGLYKSELEILKEKLRQLKEENNNGKEKLRIMAVKNSEVMAQLTESRQSILKLESELENKDEILRDKFSLMNENRELKVRVAAQNERLDLCQQEIESSRVELRSLEKIISQLPLKRELFGFKSYLSKYQMSSFSNKEDRCIGCCEANKLVISELRIKLAIKEAEIQKLHANLTANQLSQSLITCNDSQESSKLSSLETEPVKLGGHQVESVKDQNQHTMNKQYEKERQRLVTGIEELRTKLIQIEAENSDLKVNMAHRTSQFQLIQEELLEKASNSSKLESEMTKKCSQLLTLEKQLEEKIVAYSSIAAKNAELEQELMEKNEKIRSLETNINTEHEKICLAFEKAKKIHLEQHKEMEKQIERLEAQLEKKDQQFKEQEKTMSMLQQDIICKQHHLESLDRLLTESKGEMKKENMKKDEALKALQNQVSEETIKVRQLDSALEICKEELVLHLNQLEGNKEKFEKQLKKKSEEVYCLQKELKIKNHSLQETSEQNVILQHTLQQQQQMLQQETIRNGELEDTQTKLEKQVSKLEQELQKQRESSAEKLRKMEEKCESAAHEADLKRQKVIELTGTARQVKIEMDQYKEELSKMEKEIMHLKRDGENKAMHLSQLDMILDQTKTELEKKTNAVKELEKLQHSTETELTEALQKREVLETELQNAHGELKSTLRQLQELRDVLQKAQLSLEEKYTTIKDLTAELRECKMEIEDKKQELLEMDQALKERNWELKQRAAQVTHLDMTIREHRGEMEQKIIKLEGTLEKSELELKECNKQIESLNDKLQNAKEQLREKEFIMLQNEQEISQLKKEIERTQQRMKEMESVMKEQEQYIATQYKEAIDLGQELRLTREQVQNSHTELAEARHQQVQAQREIERLSSELEDMKQLSKEKDAHGNHLAEELGASKVREAHLEARMQAEIKKLSAEVESLKEAYHMEMISHQENHAKWKISADSQKSSVQQLNEQLEKAKLELEEAQDTVSNLHQQVQDRNEVIEAANEALLTKESELTRLQAKISGHEKAEDIKFLPAPFTSPTEIMPDVQDPKFAKCFHTSFSKCTKLRRSISASDLTFKIHGDEDLSEELLQDLKKMQLEQPSTLEESHKNLTYTQPDSFKPLTYNLEADSSENNDFNTLSGMLRYINKEVRLLKKSSMQTGAGLNQGENV
B2: KTN1 (protein, UniProt Q86UP2 1-1357, looked up)
Kinectin: MEFYESAYFIVLIPSIVITVIFLFFWLFMKETLYDEVLAKQKREQKLIPTKTDKKKAEKKKNKKKEIQNGNLHESDSESVPRDFKLSDALAVEDDQVAPVPLNVVETSSSVRERKKKEKKQKPVLEEQVIKESDASKIPGKKVEPVPVTKQPTPPSEAAASKKKPGQKKSKNGSDDQDKKVETLMVPSKRQEALPLHQETKQESGSGKKKASSKKQKTENVFVDEPLIHATTYIPLMDNADSSPVVDKREVIDLLKPDQVEGIQKSGTKKLKTETDKENAEVKFKDFLLSLKTMMFSEDEALCVVDLLKEKSGVIQDALKKSSKGELTTLIHQLQEKDKLLAAVKEDAAATKDRCKQLTQEMMTEKERSNVVITRMKDRIGTLEKEHNVFQNKIHVSYQETQQMQMKFQQVREQMEAEIAHLKQENGILRDAVSNTTNQLESKQSAELNKLRQDYARLVNELTEKTGKLQQEEVQKKNAEQAATQLKVQLQEAERRWEEVQSYIRKRTAEHEAAQQDLQSKFVAKENEVQSLHSKLTDTLVSKQQLEQRLMQLMESEQKRVNKEESLQMQVQDILEQNEALKAQIQQFHSQIAAQTSASVLAEELHKVIAEKDKQIKQTEDSLASERDRLTSKEEELKDIQNMNFLLKAEVQKLQALANEQAAAAHELEKMQQSVYVKDDKIRLLEEQLQHEISNKMEEFKILNDQNKALKSEVQKLQTLVSEQPNKDVVEQMEKCIQEKDEKLKTVEELLETGLIQVATKEEELNAIRTENSSLTKEVQDLKAKQNDQVSFASLVEELKKVIHEKDGKIKSVEELLEAELLKVANKEKTVQDLKQEIKALKEEIGNVQLEKAQQLSITSKVQELQNLLKGKEEQMNTMKAVLEEKEKDLANTGKWLQDLQEENESLKAHVQEVAQHNLKEASSASQFEELEIVLKEKENELKRLEAMLKERESDLSSKTQLLQDVQDENKLFKSQIEQLKQQNYQQASSFPPHEELLKVISEREKEISGLWNELDSLKDAVEHQRKKNNDLREKNWEAMEALASTEKMLQDKVNKTSKERQQQVEAVELEAKEVLKKLFPKVSVPSNLSYGEWLHGFEKKAKECMAGTSGSEEVKVLEHKLKEADEMHTLLQLECEKYKSVLAETEGILQKLQRSVEQEENKWKVKVDESHKTIKQMQSSFTSSEQELERLRSENKDIENLRREREHLEMELEKAEMERSTYVTEVRELKDLLTELQKKLDDSYSEAVRQNEELNLLKAQLNETLTKLRTEQNERQKVAGDLHKAQQSLELIQSKIVKAAGDTTVIENSDVSPETESSEKETMSVSLNQTVTQLQQLLQAVNQQLTKEKEHYQVLE
B3: XPO5 (protein, UniProt Q9HAV4 2-1204, looked up)
Exportin-5: AMDQVNALCEQLVKAVTVMMDPNSTQRYRLEALKFCEEFKEKCPICVPCGLRLAEKTQVAIVRHFGLQILEHVVKFRWNGMSRLEKVYLKNSVMELIANGTLNILEEENHIKDALSRIVVEMIKREWPQHWPDMLIELDTLSKQGETQTELVMFILLRLAEDVVTFQTLPPQRRRDIQQTLTQNMERIFSFLLNTLQENVNKYQQVKTDTSQESKAQANCRVGVAALNTLAGYIDWVSMSHITAENCKLLEILCLLLNEQELQLGAAECLLIAVSRKGKLEDRKPLMVLFGDVAMHYILSAAQTADGGGLVEKHYVFLKRLCQVLCALGNQLCALLGADSDVETPSNFGKYLESFLAFTTHPSQFLRSSTQMTWGALFRHEILSRDPLLLAIIPKYLRASMTNLVKMGFPSKTDSPSCEYSRFDFDSDEDFNAFFNSSRAQQGEVMRLACRLDPKTSFQMAGEWLKYQLSTFLDAGSVNSCSAVGTGEGSLCSVFSPSFVQWEAMTLFLESVITQMFRTLNREEIPVNDGIELLQMVLNFDTKDPLILSCVLTNVSALFPFVTYRPEFLPQVFSKLFSSVTFETVEESKAPRTRAVRNVRRHACSSIIKMCRDYPQLVLPNFDMLYNHVKQLLSNELLLTQMEKCALMEALVLISNQFKNYERQKVFLEELMAPVASIWLSQDMHRVLSDVDAFIAYVGTDQKSCDPGLEDPCGLNRARMSFCVYSILGVVKRTCWPTDLEEAKAGGFVVGYTSSGNPIFRNPCTEQILKLLDNLLALIRTHNTLYAPEMLAKMAEPFTKALDMLDAEKSAILGLPQPLLELNDSPVFKTVLERMQRFFSTLYENCFHILGKAGPSMQQDFYTVEDLATQLLSSAFVNLNNIPDYRLRPMLRVFVKPLVLFCPPEHYEALVSPILGPLFTYLHMRLSQKWQVINQRSLLCGEDEAADENPESQEMLEEQLVRMLTREVMDLITVCCVSKKGADHSSAPPADGDDEEMMATEVTPSAMAELTDLGKCLMKHEDVCTALLITAFNSLAWKDTLSCQRTTSQLCWPLLKQVLSGTLLADAVTWLFTSVLKGLQMHGQHDGCMASLVHLAFQIYEALRPRYLEIRAVMEQIPEIQKDSLDQFDCKLLNPSLQKVADKRRKDQFKRLIAGCIGKPLGEQFRKEVHIKNLPSLFKKTKPMLETEVLDNDGGGLATIFEP

Columns and labels:
[1] = test system: GFP-14-3-3β and its binding proteins; assay: GFP-14-3-3β co-IP with LC-MS/MS label-free quantification, untreated versus PP1c-treated; set-up: species or system human; settings: pairwise comparison PP1 vs untreated
[2] = test system: GFP-14-3-3β; assay: GFP-14-3-3β co-IP with LC-MS/MS, untreated GFP-14-3-3β versus GFP control (14-3-3 interactome); format: binding, human; settings: pairwise comparison untreated vs GFP
[3] = log2 difference, label-free quantification, 3 replicates each

| Molecule | Difference (log2), PP1 vs untreated [1] [log2] | Difference (log2), untreated vs GFP [2] [log2] | Difference (log2), PP1 vs untreated [1, 3] | Difference (log2), untreated vs GFP [2, 3] |
| --- | --- | --- | --- | --- |
| B1 | 0.1672 | 0.2347 | – | – |
| B2 | – | – | 2.052 | -1.401 |
| B3 | 0.177 | 1.1372 | – | – |
